In paper PMC5100589:

B1: poly(A) RNA (ssRNA)
RNA: AAAAAAAAAAAAAA
B2: m2 RNA (ssRNA)
RNA: AGGCGAUGGUGAGC
B3: AAV P5 dsDNA (dsDNA)
DNA 1: AGGGTCTCCATTTTGAAGCG
DNA 2: CGCTTCAAAATGGAGACCCT

Experiments:
YY1(F1-4) = YY1(F1-4) (human, UniProt P25490 292-414); experiment: MST
YY1(mut5) = YY1(mut5) (human, UniProt P25490 292-414, V324A;H325A;V326A;L340A;Q344A); experiment: MST
YY1(F1-4) H325A = YY1(F1-4) H325A (human, UniProt P25490 292-414, H325A); experiment: EMSA
YY1(F1-4) Q344A = YY1(F1-4) Q344A (human, UniProt P25490 292-414, Q344A); experiment: EMSA
Chain of YY1(F1-4) Q344A (P25490 292-414 Q344A): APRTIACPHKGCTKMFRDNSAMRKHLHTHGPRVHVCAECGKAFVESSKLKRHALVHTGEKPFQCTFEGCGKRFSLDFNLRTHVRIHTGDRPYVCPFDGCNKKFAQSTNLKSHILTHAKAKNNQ

YY1(F1-4) R323A = YY1(F1-4) R323A (human, UniProt P25490 292-414, R323A); experiment: EMSA
Chain of YY1(F1-4) R323A (P25490 292-414 R323A): as the sequence (P25490 292-414 Q344A) above, with R32A, A53Q counted along it

GST-YY1(F1-4) = GST-YY1(F1-4) (human, UniProt P25490 292-414); experiment: competition
Chain of GST-YY1(F1-4) (P25490 292-414): as the sequence (P25490 292-414 Q344A) above, with A53Q counted along it

Chain of YY1(F1-4) (P25490 292-414): as the sequence (P25490 292-414 Q344A) above, with A53Q counted along it
Chain of YY1(F1-4) H325A (P25490 292-414 H325A): as the sequence (P25490 292-414 Q344A) above, with H34A, A53Q counted along it
Chain of YY1(mut5) (P25490 292-414 V324A/H325A/V326A/L340A/Q344A): as the sequence (P25490 292-414 Q344A) above, with V33A, H34A, V35A, L49A counted along it

Row | Binder | Kd (YY1(F1-4)) [µM] | Kd (YY1(mut5)) [µM] | binding result (YY1(F1-4) H325A) | binding result (YY1(F1-4) Q344A) | binding result (YY1(F1-4) R323A) | binding result (GST-YY1(F1-4))
1 | B1 | 4.2 ± 0.5 | – | – | – | – | –
2 | B2 | 3.8 ± 0.6 | 31 ± 9 | binds | binds | binds | –
3 | B3 | – | – | – | – | – | binds
